Data from the supplement of paper PMC10567573.

B1: ZNF449 (parent)
chain: CTHCSKSFRQRAGLIMHQVTHFRG

Variants of: B1
Experiment: protein stability index of a GFP-peptide fusion (GPS, HEK-293T) (PSI 1-6); higher = more stable
Settings: c terminus: a fixed tail appended
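Further: lentivirally expressed fusions sorted by FACS into six bins by GFP to DsRed ratio, PSI derived from sequencing read proportions per bin multiplied by bin number.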

Protein stability index of substitutions, site by site:
T20: I 2.57; E 1.99; C 1.52; H 2.33; Y 2.05; S 1.45; M 1.56; F 2.09; R 2.14; Q 1.83; L 1.43; K 2.33; D 2.18; V 1.73; W 2.09; A 2.04; G 2.06; N 2.44
G24: N 2.91; K 3.01; E 2.88; D 3.59; F 2.68; C 2.53; P 3.29; A 2.82; M 2.81; I 2.44; Q 3.19; L 3.55; H 2.17
H21: L 1.97; I 2.39; E 1.89; F 1.8; C 2.53; P 1.49; R 1.85; W 2.41; G 1.55; Q 1.35; Y 1.4; M 2.56; V 1.91; A 2.17; T 1.47; S 1.29; K 2.28
M16: L 1.98; Q 3.57; S 3.15; E 3.85; F 2.18; R 3.9; T 2.78; I 3.24; V 2; Y 1.57; W 1.52; D 3.52; P 1.65; N 2.86; A 3.98; C 2.64; G 3.45; H 2.43; K 3.55
I15: W 2.9; M 2.49; R 2.66; N 1.73; S 3.21; K 2.36; P 1.22; Q 2.76; V 3.12; T 2.3; Y 2.44
V19: R 3.95; D 1.81; A 2.01; G 2.74; W 2.71; I 2.91; L 2.92; K 3.79; E 3.08; N 2.82; M 2.12; H 1.89; F 2.4; Q 2; S 1.79; T 1.88; P 1.76; C 3.24; Y 2.55
H17: R 1.82; L 1.69; M 2.44; E 2.36; N 1.43; D 2.46; P 1.03; I 2.52; K 2.24; G 3.28; C 2.29; W 2.12; T 1.47
F22: M 2.18; Y 2.45; N 2.39; C 3.06; A 1.72; G 2.61; K 2.06; H 3.29; S 2.2; D 2.37; T 1.98; V 2.14; R 3.58; P 1.58; I 1.92; Q 2.5; L 1.93; E 1.98; W 1.08
Q18: H 1.72; L 2.11; R 1.73; Y 3.18; M 1.69; E 2.09; A 1.51; D 2.79; S 2.48; K 1.69; P 3.9; C 1.9; F 1.67; G 1.32; N 1.53; T 1.43; V 1.52; W 1.29; I 1.96
R23: C 2.56; V 3.18; Y 2.36; N 2.15; H 1.62; T 2.03; I 3.44; W 3.55; P 2.69; M 2.44; Q 2.6; L 3.36; K 2.7; D 2.49; F 3.33; A 2.97; S 2.07; E 2.93; G 2.37
